Assay results: patent publication US20160368995A1 (University of California, published 2016)

Legend:
Test in all cases: binding and/or signaling studies
CCR2 = target: T1, CCR2 (human, UniProt P41597-2 1-360)
T1 sequence: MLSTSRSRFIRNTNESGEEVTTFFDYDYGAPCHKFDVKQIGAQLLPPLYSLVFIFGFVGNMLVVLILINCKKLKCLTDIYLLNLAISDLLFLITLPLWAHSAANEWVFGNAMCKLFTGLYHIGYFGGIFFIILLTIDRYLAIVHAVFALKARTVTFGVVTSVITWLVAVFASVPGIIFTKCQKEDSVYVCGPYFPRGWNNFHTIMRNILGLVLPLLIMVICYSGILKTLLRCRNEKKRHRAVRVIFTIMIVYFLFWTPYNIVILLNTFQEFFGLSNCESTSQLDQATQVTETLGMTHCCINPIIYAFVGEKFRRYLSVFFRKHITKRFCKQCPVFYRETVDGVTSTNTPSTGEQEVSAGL
Description: (§1) Radioligand displacement studies of various chemotaxis receptors were carried out. For the radioligand binding assay, membranes from HEK293T cells transiently expressing the respective chemokine receptors were incubated with ˜[…] ¹²⁵I-chemokine and increasing concentrations of chemokine (control) or CXCL17. Cells were incubated for 3 h at 4° C. and washed twice with binding buffer containing 0.5 M NaCl. After harvesting the samples with lysis buffer, the remaining cell-bound radioactivity was counted.

CXCR7 = target: T2, CXCR7 (human, UniProt P25106 1-362)
T2 construct: Tested on CXCR7 expressing cells
T2 sequence (P25106 whole entry): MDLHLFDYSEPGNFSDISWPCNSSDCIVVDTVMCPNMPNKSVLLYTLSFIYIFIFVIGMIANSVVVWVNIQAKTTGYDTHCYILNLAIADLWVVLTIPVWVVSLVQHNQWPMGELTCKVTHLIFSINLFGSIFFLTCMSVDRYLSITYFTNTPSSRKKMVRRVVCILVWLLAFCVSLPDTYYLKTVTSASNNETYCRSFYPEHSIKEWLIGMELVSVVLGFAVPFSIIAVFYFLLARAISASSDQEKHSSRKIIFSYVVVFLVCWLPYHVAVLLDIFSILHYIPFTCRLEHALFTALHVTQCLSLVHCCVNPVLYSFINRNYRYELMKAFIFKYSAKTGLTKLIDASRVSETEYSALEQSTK
Description: as §1

CXCR3 = target: T3, CXCR3 (UniProt P49682 1-368, limits assumed)
T3 construct: whole, on cells
T3 sequence (looked up): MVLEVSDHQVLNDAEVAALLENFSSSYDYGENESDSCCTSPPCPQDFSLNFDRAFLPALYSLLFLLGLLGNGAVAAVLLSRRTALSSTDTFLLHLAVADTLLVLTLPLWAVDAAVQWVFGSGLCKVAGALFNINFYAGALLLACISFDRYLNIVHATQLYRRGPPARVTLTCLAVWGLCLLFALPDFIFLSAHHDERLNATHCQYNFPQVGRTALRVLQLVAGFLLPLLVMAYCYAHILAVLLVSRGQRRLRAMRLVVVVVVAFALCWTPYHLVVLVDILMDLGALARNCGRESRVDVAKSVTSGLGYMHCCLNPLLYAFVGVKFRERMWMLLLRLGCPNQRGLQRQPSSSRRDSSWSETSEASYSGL
Description: as §1

CXCR4 = target: T4, CXCR4 (human, UniProt P61073-2 1-356)
T4 construct: The construct used is not described
T4 sequence (P61073 other isoform, or with tags, fused parts or gaps): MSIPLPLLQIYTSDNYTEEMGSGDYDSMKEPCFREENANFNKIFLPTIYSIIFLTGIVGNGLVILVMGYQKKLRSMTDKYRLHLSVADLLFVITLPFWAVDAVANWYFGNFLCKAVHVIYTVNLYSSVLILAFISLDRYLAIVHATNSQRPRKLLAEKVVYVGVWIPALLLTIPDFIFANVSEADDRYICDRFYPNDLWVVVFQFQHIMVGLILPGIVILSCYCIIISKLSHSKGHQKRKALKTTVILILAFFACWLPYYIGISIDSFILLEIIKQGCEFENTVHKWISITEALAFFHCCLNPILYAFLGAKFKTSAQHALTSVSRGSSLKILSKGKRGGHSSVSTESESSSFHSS
Description: as §1

CCX-CKR = target: T5, CCX-CKR (UniProt Q9NPB9 1-350, limits assumed)
T5 construct: whole, on cells
T5 sequence (looked up): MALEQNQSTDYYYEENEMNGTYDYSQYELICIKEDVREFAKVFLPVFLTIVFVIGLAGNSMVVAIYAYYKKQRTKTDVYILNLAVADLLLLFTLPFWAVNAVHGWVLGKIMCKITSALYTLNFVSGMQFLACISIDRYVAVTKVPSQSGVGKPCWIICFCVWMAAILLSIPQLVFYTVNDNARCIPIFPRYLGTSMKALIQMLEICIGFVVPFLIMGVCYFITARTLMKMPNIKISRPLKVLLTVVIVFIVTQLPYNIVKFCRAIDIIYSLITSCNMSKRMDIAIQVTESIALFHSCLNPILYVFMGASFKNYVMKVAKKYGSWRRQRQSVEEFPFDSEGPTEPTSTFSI
Description: as §1

Measured: binding result

B1: recombinant human CXCL17 (chemokine (C-X-C motif) ligand 17) (ligand)
chain: SSLNPGVARGHRDRGQASRRWLQEGGQECECKDWFLRAPRRKFMTVSGLPKKQCPCDHFKGNVKKTRHQRHHRKPNKHSRACQQFLKQCQLRSFALPL
notes: Bought recombinant protein (R&D Systems); also called human recombinant CXCL17
no binding: all assays above
